This passage reports Kd results from patent US20100216663A1.

pKd: −log10 of the molar value.

This test concerns the target human IgE (human) (UniProt P01854). The test can be described thus: Biacore, human IgE on CM5 chip, sample protein in flow.

Chain of human IgE (human) (P01854 other isoform, or with tags, fused parts or gaps): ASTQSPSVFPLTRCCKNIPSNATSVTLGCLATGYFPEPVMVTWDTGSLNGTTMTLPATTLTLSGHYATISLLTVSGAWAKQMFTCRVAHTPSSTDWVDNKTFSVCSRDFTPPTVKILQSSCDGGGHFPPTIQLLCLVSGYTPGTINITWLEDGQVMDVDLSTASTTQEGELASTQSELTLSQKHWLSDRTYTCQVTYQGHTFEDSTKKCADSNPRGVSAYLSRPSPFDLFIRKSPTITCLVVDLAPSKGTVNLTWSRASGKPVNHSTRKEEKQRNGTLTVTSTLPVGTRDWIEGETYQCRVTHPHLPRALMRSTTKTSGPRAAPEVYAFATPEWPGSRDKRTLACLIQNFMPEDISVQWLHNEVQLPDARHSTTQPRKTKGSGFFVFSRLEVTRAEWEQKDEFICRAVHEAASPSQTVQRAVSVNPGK

With “recombinant human FcERI protein (from UniProt P12319 26-205) (receptor)”, the negative-log Kd (pKd) was 6.35.
